Conditions in all cases: remark: other sources report otherwise
Assay [1] deals with T1, human recombinant VEGFR2 (human), P35968.
T1 chain: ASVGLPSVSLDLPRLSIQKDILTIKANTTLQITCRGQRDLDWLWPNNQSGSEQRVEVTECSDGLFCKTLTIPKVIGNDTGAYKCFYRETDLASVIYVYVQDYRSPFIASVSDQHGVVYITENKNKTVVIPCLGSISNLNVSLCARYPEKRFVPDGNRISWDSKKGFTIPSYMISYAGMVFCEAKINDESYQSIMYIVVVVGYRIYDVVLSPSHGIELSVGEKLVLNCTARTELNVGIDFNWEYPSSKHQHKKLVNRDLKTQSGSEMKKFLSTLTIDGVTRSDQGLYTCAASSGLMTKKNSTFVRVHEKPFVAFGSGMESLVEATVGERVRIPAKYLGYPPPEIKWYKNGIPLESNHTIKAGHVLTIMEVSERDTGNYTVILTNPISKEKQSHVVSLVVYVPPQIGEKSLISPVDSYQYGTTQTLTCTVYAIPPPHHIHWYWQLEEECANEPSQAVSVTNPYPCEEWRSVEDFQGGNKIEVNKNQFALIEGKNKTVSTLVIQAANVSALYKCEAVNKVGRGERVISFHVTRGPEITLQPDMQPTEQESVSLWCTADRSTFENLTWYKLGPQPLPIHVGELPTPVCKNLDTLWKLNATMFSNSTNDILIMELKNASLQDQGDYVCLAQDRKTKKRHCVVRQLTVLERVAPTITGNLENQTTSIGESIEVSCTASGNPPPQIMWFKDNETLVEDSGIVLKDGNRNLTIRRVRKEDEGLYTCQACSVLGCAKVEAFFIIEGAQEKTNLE
The assay is described as follows: SPR; BIAcore 3000, 25 °C, CM5 chip; receptor immobilised by amine coupling (~200-500 R.U.); ligand injected at 10, 20 and 40 nM, 30 uL/min, 10 min dissociation; HBS-EP pH 7.4 (10 mM HEPES, 3 mM EDTA, 150 mM NaCl, 0.005% TWEEN-20); angiopoietin-4 reference cell subtracted; global 1:1 Langmuir fit; χ2-to-Rmax > 1.0 or negative association curves taken as no true interaction.

Assay [2] addresses T2, human recombinant PDGFRβ (human), P09619.
T2 chain: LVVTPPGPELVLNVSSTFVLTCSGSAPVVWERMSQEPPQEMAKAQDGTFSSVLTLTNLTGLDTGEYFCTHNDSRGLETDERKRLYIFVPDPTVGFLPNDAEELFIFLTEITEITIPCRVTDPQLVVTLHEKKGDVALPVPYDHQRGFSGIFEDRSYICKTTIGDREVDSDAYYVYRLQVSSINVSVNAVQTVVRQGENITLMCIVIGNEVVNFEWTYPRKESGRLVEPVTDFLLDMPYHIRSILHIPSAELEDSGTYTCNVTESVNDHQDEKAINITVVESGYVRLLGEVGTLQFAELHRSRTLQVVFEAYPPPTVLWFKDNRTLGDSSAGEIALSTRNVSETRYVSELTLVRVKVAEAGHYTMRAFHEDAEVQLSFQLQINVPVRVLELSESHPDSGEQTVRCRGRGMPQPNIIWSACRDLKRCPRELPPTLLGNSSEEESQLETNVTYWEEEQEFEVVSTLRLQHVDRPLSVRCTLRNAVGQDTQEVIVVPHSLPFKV
The assay is described as follows: SPR; BIAcore 3000, 25 °C, CM5 chip; receptor immobilised by amine coupling (~200-500 R.U.); ligand injected at 40, 20 and 10 nM in HBS-EP pH 7.4 (10 mM HEPES, 3 mM EDTA, 150 mM NaCl, 0.005% TWEEN-20); angiopoietin-4 reference cell subtracted; global 1:1 Langmuir fit; χ^2-to-Rmax < 1.0 taken as a true interaction. (In general: In SPR one partner is held on a chip, and binding of the other changes the refractive index at the surface.)

Assay [3] has as its target T1, human recombinant VEGFR2 (human), P35968. Described as above.

B1: human recombinant PDGF-CC, Q9NRA1 23-345 (ligand)
chain: VVDLNLLTEEVRLYSCTPRNFSVSIREELKRTDTIFWPGCLLVKRCGGNCACCLHNCNECQCVPSKVTKKYHEVLQLRPKTGVRGLHKSLTDVALEHHEECDCVCRGSTGG
modifications: here or on the partner: disulfide-linked homodimer; limits not given, active growth factor domain after cleavage at Arg234 taken by convention
What is called koff is the rate constant with which the complex falls apart. In general, kon refers to the rate constant with which the complex forms. With B1, in assay [1], the koff was found to be 2.6e-05 s⁻¹ and the kon stood at 36000 M⁻¹ s⁻¹.

B2: human recombinant PDGF-CC, Q9NRA1 235-345 (ligand)
chain: VVDLNLLTEEVRLYSCTPRNFSVSIREELKRTDTIFWPGCLLVKRCGGNCACCLHNCNECQCVPSKVTKKYHEVLQLRPKTGVRGLHKSLTDVALEHHEECDCVCRGSTGG
One may read the Kd as the concentration at which binding is half-saturated. Regarding B2, the Kd was 1.9 nM in assay [2] and 0.07 nM in assay [3].

For the origin of these results see publication PMC5704011.
